According to paper PMC9723947, “Ornate, large, extremophilic (OLE) RNA forms a kink turn necessary for OapC protein recognition and RNA function”:

Key:
[1] = target: T1, YbxF/OapC WT (Bacillus halodurans C-125) (UniProt Q9Z9M0); assay: filter binding; details: Filter binding: 20 mM Tris-HCl pH 7.5, 150 mM NaCl, 10 mM MgCl2, 1 mM TCEP, ~20 C, 15 min, ~10 pM RNA
T1 sequence: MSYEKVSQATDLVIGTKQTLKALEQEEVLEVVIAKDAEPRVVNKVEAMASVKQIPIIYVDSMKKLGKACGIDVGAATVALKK

[2] = target: T1, YbxF/OapC WT (Bacillus halodurans C-125); assay: footprinting (in-line probing); details: Filter binding: 20 mM Tris-HCl pH 7.5, 150 mM NaCl, 10 mM MgCl2, 1 mM TCEP, ~20 C, 15 min, ~10 pM RNA
YbxF/OapC WT [3] = target: T2, YbxF/OapC WT (Bacillus halodurans C-125, UniProt Q9Z9M0 1-82); assay: filter binding; Filter binding: 20 mM Tris-HCl pH 7.5, 150 mM NaCl, 10 mM MgCl2, 1 mM TCEP, ~20 C, 15 min, ~10 pM RNA; details: protein: recombinant, tags: N-terminal His6 + PreScission (3C) site, label: 5' 32P
T2 sequence: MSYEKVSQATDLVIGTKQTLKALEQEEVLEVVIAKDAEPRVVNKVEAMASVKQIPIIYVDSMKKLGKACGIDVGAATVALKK

YbxF/OapC WT [4] = target: T2, YbxF/OapC WT; assay: filter binding; no binding at 1 uM or higher protein; Filter binding: 20 mM Tris-HCl pH 7.5, 150 mM NaCl, 10 mM MgCl2, 1 mM TCEP, ~20 C, 15 min, ~10 pM RNA; details: protein: recombinant; tags: N-terminal His6 + PreScission (3C) site; label: 5' 32P; hairpin

## GGCACAUCGAUGAAGCUCCUUGUGAUGGCUUGAGGCGCCCAGCCUUGGGUCAUUGCUGGGAGAAAAGGUAGUAGGGCGAUCCACAAAGGCAUGUGGGCGAUGACCCUCCUACUGUGGAGGCCUUUUUCUCUGCUGCUUAUGUAUGGACAUAGG [OLE78-230]
[1]
  binding: binds more weakly

## GGCACAUCGAUGAAGCUCCUUGUGAUGGCUUGAGGCGCCCAGCCUUGGGUCAUUGCUGGGAGAAAAGGUAGUAGGGCGAUCCACAAAGGCAUGUGGGCGAUGACCCUCCUACUGUGGAGGCCUUUUUCUCUGCUGCUUAUGUAUGGACAUAGGGCAAGAGCAAAGGGUAUGAACCUGCGAAGGCAAGCUAGGGAGCUUGUCAGCAGCGUAGCC [OLE78-290]
[1]
  binding: binds
[2]
  binding: binds

## GGCAUUUAAAGAGGAUUACAGUGUGGACUAAGUGGUAAUCCAGUCUGGCGUUUGGUGACAGCGCCAAGUUCAACAUAAAGGGAAACCGCCAGCGCGGCGACGCACUGGUGUUGAAUUGGGAAAUCCUACUGGACCUAAGCCACAGAGUUUACUCUUUAAAUG [OLE449-608]
[1]
  binding: no binding

## GGCCUUGAGUGGAGUAGAGGGGAUUAUGGGUUUUGAAGCAAUCCGCUGUCGGCCAACAGCCAUUGCCUCUCUAGUACCAUAUGAAAUCUGCUCUGCAAAAGAG [OLE293-394]
[1]
  binding: no binding

B1: OLE83-147 (structured_RNA)
RNA: GGAUCGAUGAAGCUCCUUGUGAUGGCUUGAGGCGCCCAGCCUUGGGUCAUUGCUGGGAGAAAAGGUA
YbxF/OapC WT [3]
  binding result: binds

## GGAUCGAUGAAGCUCCCGAAAGGGAGAAAAGGUA (structured_RNA) [OLE k-turn WT]
YbxF/OapC WT [3]; hairpin with k-turn
  binding result: binds

## GGACCGAUGAAGCUCCCGAAAGGGAGAAAAGGUA (structured_RNA) [OLE k-turn U84C]
YbxF/OapC WT [3]; hairpin with k-turn
  binding result: binds

## GGAUAGAUGAAGCUCCCGAAAGGGAGAAAAGGUA (structured_RNA) [OLE k-turn C85A]
YbxF/OapC WT [4]
  binding result: no binding
